Source: the supplement of paper PMC9170038

System: MS2 coat protein
Assay: apparent KD of MS2 coat protein; designed switch direction (-1 OFF switch, 1 ON switch): -1; higher = weaker reporter binding
Procedure, shortened: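 On Illumina chips, designed RNA switches with common flanks were made by stalled E. coli RNA polymerase. Titrations with SNAP-549-labelled MS2 coat protein, doubling from 0.7 or 1.5 nM to 3 µM, were done with no input, with 200 uM small-molecule ligand, or with an oligonucleotide input. Apparent KD is the median per design over clusters, from curve fits of normalised cluster fluorescence.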

[1] = input ligand: microRNA oligo, concentration not stated
[2] = Eterna round: R95, input ligand: FMN 200 uM
[3] = Eterna round: R95, input ligand: microRNA oligo, concentration not stated
[4] = Eterna round: R95, input ligand: none

Row | Sequence | apparent KD of MS2 coat protein (input ligand: FMN 200 uM) [nM] | apparent KD of MS2 coat protein (input ligand: none) [nM] | apparent KD of MS2 coat protein [3] [nM] | other results
1 | UCAGUUCUGCAAGGAUAUCGUCCUAGUUUGGUUCGAGAAGGUGCUUUUGUUUUUUCUUUGUGUUGACAUGAGGAUCACCCAUGU [JR_ExcNG1_Sub053] (Eterna round: R96, puzzle: Exclusion NG 1) | 20.7 | 27.1 | – | apparent KD of MS2 coat protein [1]: 13.8 nM
2 | UCAUGCUAAGGAUAUGACGUCGGCUACAUGAGGAUCACCCAUGUGGGUUCGUUAUGGCCAUUAGAAGGUAGCGAUU [Eternabot (L2) Solution 95] (Eterna round: R97, puzzle: Exclusion 5) | 17.8 | – | – | –
3 | UCAUGGUAGCAGGAUAUGCUAGAAAUUUUUUAUGCAGAAGGGCUUACAUGAGGAUCACCCAUGUGUUAGGUUUA [JR_E6_Sub071] (puzzle: Exclusion 6) | – | – | 110 | apparent KD of MS2 coat protein [2]: 22.3 nM; apparent KD of MS2 coat protein [4]: 221 nM
4 | UCAUGUAUGUAGGAUAUCGAUGUCCUCGGACAUCGAGAAGGACGUACAUGAGGAUCACCCAUGUAACUUGCAUG [Exclusion 6 - B - 11:c] (puzzle: Exclusion 6) | – | – | 14 | apparent KD of MS2 coat protein [2]: 23 nM; apparent KD of MS2 coat protein [4]: 23.4 nM
5 | UCCAAGCGGAAGCAAUGAAACAUGAGGAUCACCCAUGUCCCGGUGGUCAUUCACCCAAGCUUUUUGUAGUCAACCUU [Eternabot (L1) Solution 42] (Eterna round: R97, puzzle: Sensor, turn-off variant 1) | 249 | 297 | – | –
6 | UCCAGUGAAGGAUAUGCACCAGGCAAUUGUAGGGUACUCAUACAUGAGGAUCACCCAUGUAGAAGGUCGCAGGC [Eternabot (L2) Solution 78] (Eterna round: R97, puzzle: Exclusion 2) | 32.4 | – | – | –
7 | UCCGGACAUGAGGAUCACCCAUGUUAGGAUAUCUGAGGUGUGCCAGGAUCCUGGGCCCAGAGAAGGAAUAUGGC [Eternabot (L2) Solution 28] (Eterna round: R97, puzzle: Exclusion 1) | 21.7 | 19.8 | – | –
8 | UCCGGGUUUGUAGGAUAUAGUCUGCUUUGCAGACUAGAAGGACAUGAGGAUCACCCAUGUUGUGGAAAUUUGGGAUGUUCCUUU [random2] (Eterna round: R96, puzzle: Exclusion NG 1) | 176 | 189 | – | apparent KD of MS2 coat protein [1]: 27.4 nM
9 | UCCUCACAUGAGGAUCACCCAUGUGAGGAUAUCAUGCUUCGUAGUAAACUACGAAGUGUGAGAAGGCGCAUGGC [Omei Ex1 D16] (Eterna round: R97, puzzle: Exclusion 1) | 20.4 | 16.2 | – | –
10 | UCCUGACAUGAGGAUCACCCAUGUGAGGAUAUGUGGAUCGAGUCAAAUCUCGUUCCGUGCAGAAGGCACAGGGC [EX1 A.21] (Eterna round: R97, puzzle: Exclusion 1) | 24.9 | 19 | – | –
11 | UCCUGGCGAGGAUAUACAAAGAUUUUUUCGUUUUGUCUCGAACAUGAGGAUCACCCAUGUAGAAGGUGCUGCUG [JR_Ex2_Sub014] (Eterna round: R97, puzzle: Exclusion 2) | 50.3 | 52.2 | – | –
12 | UCGACGUCGUCAGGAUAUAGUCUUAAUGUCAUGCUUUUGUUCGUACAUGAGGAUCACCCAUGUGGCUAGAAGGGACUAAAGUUU [JR_ExcNG2_Sub016] (Eterna round: R96, puzzle: Exclusion NG 2) | 16.1 | 26.9 | – | apparent KD of MS2 coat protein [1]: 11.7 nM
13 | UCGGCGCGAGGAUAUACGGUUGCUUGGUAGGGUCGUGGCGUACAUGAGGAUCACCCAUGUAGAAGGCGCGCCGC [Apr-15 SS2-31] (puzzle: Exclusion 2) | – | – | 15.9 | –
14 | UCGGCGCGAGGAUAUACGUUUGCUUUUUUUCGUUUUUGUGUACAUGAGGAUCACCCAUGUAGAAGGCGCGCCGC [Apr-15 SS2-20] (puzzle: Exclusion 2) | – | – | 14.6 | –
15 | UCGGCGCGAGGAUAUGCGGUUGCUUGGUAGGGUCGGAGCGUACAUGAGGAUCACCCAUGUAGAAGGCGCGCCGC [Apr-15 SS2-33] (puzzle: Exclusion 2) | – | – | 15.5 | –
16 | UCGGCGCUAGGAUAUGCGUCGAAAGACAUGAGGAUCACCCAUGUGGUGCUCCUUAUUAAAGCAGAAGGAGCCCGUA [EX5 A.17] (Eterna round: R97, puzzle: Exclusion 5) | 300 | 152 | – | –
17 | UCGUUCCGUGUAGGAUAUUGGCCUCCCUUGGGCCGAGAAGGACAUGAGGAUCACCCAUGUAUGUUAUUAUCGCGCGUGGCGCAU [Design 88] (Eterna round: R96, puzzle: Exclusion NG 1) | 126 | 18.4 | – | apparent KD of MS2 coat protein [1]: 13.8 nM

Row | Sequence | apparent KD of MS2 coat protein (input ligand: FMN 200 uM) [nM] | apparent KD of MS2 coat protein (input ligand: none) [nM] | apparent KD of MS2 coat protein [3] [nM] | other results
18 | UCGUUUCGUGUAGGAUAUUGGCCUUCUCUGGGUCGAGAAGGACAUGAGGAUCACCCAUGUAUGUUAUUAUCACGCGUGGCGCAU [Design 83] (Eterna round: R96, puzzle: Exclusion NG 1) | 35.3 | 28.2 | – | apparent KD of MS2 coat protein [1]: 15.8 nM
19 | UCUCAACAUGAGGAUCACCCAUGUGAGGAUAUGAUGCAGCAGUGGUCUACGCUGUGCAUCAGAAGGCACAUGUG (puzzle: Exclusion 1) | – | – | 119 | –
20 | UCUCAGAUAGGAUAUACGUUGGCGGUAGAUCGGGUUUAAAUACAUGAGGAUCACCCAUGUAGAAGGAUCGAGGG [EX2 C.8] (Eterna round: R97, puzzle: Exclusion 2) | 94.4 | 104 | – | –
21 | UCUCGACAUGAGGAUCACCCAUGUCAGGAUAUUGUGUUUGAGGUUUUUUACCUUUUGGCAAGAAGGGAUGUGUG [LRO-Excl1-21] (Eterna round: R96, puzzle: Exclusion 1) | 27.5 | 27.7 | – | apparent KD of MS2 coat protein [1]: 19.7 nM
22 | UCUCGACAUGAGGAUCACCCAUGUCAGGAUAUUGUGUUUGAGGUUUUUUACCUUUUGGCAAGAAGGGAUGUGUG [LRO-Excl1-21] (puzzle: Exclusion 1) | – | – | 24.9 | –
23 | UCUCGACAUGAGGAUCACCCAUGUCAGGAUAUUGUGUUUUGGGUUUUUUACCUUUUGGCAAGAAGGGAUGUGUG [LRO-Excl1-20] (puzzle: Exclusion 1) | – | – | 20.4 | –
24 | UCUCGCGGGCAAGGAUAUCCCACGCUGUUCUGGCCCGUGUUUGUUACAUGAGGAUCACCCAUGUGGGAGAAGGUGCACCAGGGC [Design 42] (Eterna round: R96, puzzle: Exclusion NG 2) | 218 | 168 | – | apparent KD of MS2 coat protein [1]: 96.3 nM
25 | UCUCGCGGGCAAGGAUAUCCUACGUUGUUCUGGCCCGUGCAUGUUACAUGAGGAUCACCCAUGUGGGAGAAGGUGCACCAGGGC [Design 38] (Eterna round: R96, puzzle: Exclusion NG 2) | 56.9 | 52.5 | – | apparent KD of MS2 coat protein [1]: 30.3 nM
26 | UCUGGUCAAGGAUAUACAAUCGUGCUUCGGCACGUAAGAUCACAUGAGGAUCACCCAUGUAGAAGGUGACCAGA [E2/1-C3] (Eterna round: R97, puzzle: Exclusion 2) | 449 | 43.9 | – | –
27 | UCUGGUCGAGGAUAUACAUGAGGAUCACCCAUGUGGUCACGUGACUUCGGUCACGAAUGUAGAAGGCGACCAGA [E3/3-A6] (Eterna round: R97, puzzle: Exclusion 3) | 26.7 | 51 | – | –
28 | UCUUACUGAGGAUAUACAUAGAUUUACAUGAGGAUCACCCAUGUUCCUCUAAGUAUAUAUGUAGAAGGCAGAAGAU [Mat - Exclusion 5 - JL Mod - D44] (Eterna round: R97, puzzle: Exclusion 5) | 329 | 235 | – | –
29 | UCUUAUUGCAAGGAUAUGCAAAUUAUUAUUAAAGCAGAAGGUGCAACAUGAGGAUCACCCAUGUUUCCGGGAAA [JR_E6_Sub040] (puzzle: Exclusion 6) | – | – | 25 | –
30 | UCUUAUUGCAAGGAUAUGCUUUUUAUUUCUUUUGCAGAAGGUGCAACAUGAGGAUCACCCAUGUUUCCGGGCAU [JR_E6_Sub035] (Eterna round: R96, puzzle: Exclusion 6) | 34.4 | 21.5 | – | apparent KD of MS2 coat protein [1]: 16.4 nM
31 | UCUUAUUGCAAGGAUAUGCUUUUUAUUUCUUUUGCAGAAGGUGCAACAUGAGGAUCACCCAUGUUUCCGGGCAU [JR_E6_Sub035] (puzzle: Exclusion 6) | – | – | 16.8 | –
32 | UGAAACCUAGGAUAUACAUGAGGAUCACCCAUGUAAUGUAGUAUAGUAUAUGUAAGAUGUAGAAGGAGGAAAGU [LRO-Excl05-27-Smart Aleck] (Eterna round: R97, puzzle: Exclusion 3) | 26.3 | 37.7 | – | –
33 | UGAAUAAUAGUAAGGAUAUCAGCCGCGAAAGUGGCUGAGAAGGUACAUGAGGAUCACCCAUGUGAAAUAAGAAU [Mod of Zala 19 - Jieux - Brourd's Mod of Exclusion 4] (Eterna round: R97, puzzle: Brourd's mod of Exclusion 4) | 27.1 | 19.8 | – | –
